Drawing on publication PMC3947954, this text covers percent less co-immunoprecipitated than 15Q HTT 1–548 and percent decrease of interaction against 15Q HTT 1–548 for one substance.

The target in experiment [1] is HIP14-GFP (Huntingtin Interacting Protein 14, GFP tagged) (human (from the printed RefSeq entries)) (UniProt Q8IUH5). Nature of the experiment: co-IP; COS-7 cells transiently co-transfected, harvested after 24 h; lysed in 1% SDS TEEN, diluted in four volumes 1% TritonX-100 TEEN; GFP immunoprecipitated overnight (goat anti-GFP, Dynabeads Protein G); blots probed for HTT and GFP; HTT band as percent of the GFP band, normalized to 15Q HTT 1–548.
Chain of UniProt Q8IUH5 (Q8IUH5 whole entry): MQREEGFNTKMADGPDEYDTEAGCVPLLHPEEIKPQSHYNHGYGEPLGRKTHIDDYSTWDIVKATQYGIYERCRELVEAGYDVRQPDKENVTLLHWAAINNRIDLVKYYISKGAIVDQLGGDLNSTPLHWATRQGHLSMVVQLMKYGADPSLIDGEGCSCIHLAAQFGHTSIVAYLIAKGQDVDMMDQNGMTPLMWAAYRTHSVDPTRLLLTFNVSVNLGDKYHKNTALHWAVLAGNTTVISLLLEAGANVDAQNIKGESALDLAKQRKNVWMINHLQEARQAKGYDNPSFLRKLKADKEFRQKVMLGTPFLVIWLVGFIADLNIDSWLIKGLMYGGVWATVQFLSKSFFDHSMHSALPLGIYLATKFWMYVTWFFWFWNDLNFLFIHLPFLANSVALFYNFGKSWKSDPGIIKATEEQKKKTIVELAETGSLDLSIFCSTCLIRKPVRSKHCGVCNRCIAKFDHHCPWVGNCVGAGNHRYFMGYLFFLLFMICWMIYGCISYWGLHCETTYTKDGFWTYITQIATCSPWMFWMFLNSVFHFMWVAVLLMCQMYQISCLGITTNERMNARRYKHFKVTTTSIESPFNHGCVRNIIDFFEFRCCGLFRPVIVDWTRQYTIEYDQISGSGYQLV

The target in experiment [2] is HIP14L-GFP (Huntingtin Interacting Protein 14-like, GFP tagged) (human (from the printed RefSeq entries)) (UniProt Q8IUH4). Described as above.
Chain of UniProt Q8IUH4 (Q8IUH4 whole entry): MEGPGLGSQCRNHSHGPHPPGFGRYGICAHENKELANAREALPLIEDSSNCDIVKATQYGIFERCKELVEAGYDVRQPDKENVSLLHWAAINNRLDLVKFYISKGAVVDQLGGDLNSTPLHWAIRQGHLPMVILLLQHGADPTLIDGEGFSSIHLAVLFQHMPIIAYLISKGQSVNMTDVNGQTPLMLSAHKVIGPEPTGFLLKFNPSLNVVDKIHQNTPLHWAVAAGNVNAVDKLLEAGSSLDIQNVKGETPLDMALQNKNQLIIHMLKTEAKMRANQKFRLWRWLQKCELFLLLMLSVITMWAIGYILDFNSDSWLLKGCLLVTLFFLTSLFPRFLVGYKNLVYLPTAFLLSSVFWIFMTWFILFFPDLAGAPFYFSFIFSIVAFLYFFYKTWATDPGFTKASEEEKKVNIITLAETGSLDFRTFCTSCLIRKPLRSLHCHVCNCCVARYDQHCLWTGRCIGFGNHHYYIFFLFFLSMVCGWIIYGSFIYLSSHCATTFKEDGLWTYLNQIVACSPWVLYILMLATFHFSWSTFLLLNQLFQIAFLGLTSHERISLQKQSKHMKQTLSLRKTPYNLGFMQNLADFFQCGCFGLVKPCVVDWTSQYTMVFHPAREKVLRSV

As for 128Q HTT 1–548 (domain or fragment), the percent less co-immunoprecipitated than 15Q HTT 1–548 in experiment [1] is 57%. In experiment [2], the percent decrease of interaction against 15Q HTT 1–548 is 54%.
